In this assay the target is T1, human CD47 (human, UniProt Q08722 19-139, limits assumed).
T1 construct: in the IHC study it is the native protein in frozen human tissues; also called Integrin-Associated-Protein; IAP
The assay is described as follows: immunohistochemistry, biotin-conjugated NI-1801 on frozen human tissues. The source says:
Sections of ovarian carcinoma (endometrioid adenocarcinoma) were used as positive controls.

T1 sequence (Q08722 19-139 limits assumed): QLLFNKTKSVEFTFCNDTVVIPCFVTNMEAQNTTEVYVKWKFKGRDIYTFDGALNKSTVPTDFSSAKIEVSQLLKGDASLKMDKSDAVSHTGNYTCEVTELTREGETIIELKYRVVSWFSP

B1: NI-1801 (bispecific antibody Ka3×O38, anti-CD47 × anti-mesothelin) (bispecific antibody, human IgG1, kappa, lambda)
heavy: not shown
light 1: not shown
light 2: QPVLTQPASLSASPGASASLTCTLRSGINVRDYRIFWYQQKPGSPPQYLLRYKSASDKQQGSGVPSRFSGSKDASANAGILLISGLQSEDEADYYCMIWHHDSEGHAFVFGGGTKLTVLGQPKAAPSVTLFPPSSEELQANKATLVCLISDFYPGAVTVAWKADSSPVKAGVETTTPSKQSNNKYAASSYLSLTPEQWKSHRSYSCQVTHEGSTVEKTVAPTECS
notes: also called CD47×MSLN bispecific
B1: the binding result was “binds”.

The record behind these values is US20250171537A1 (NOVIMMUNE, published 2025).
